From patent publication US20250177548A1, “FUSOGENIC PEPTIDE COMPOSITIONS AND METHODS OF CARGO DELIVERY” (CLEMSON UNIVERSITY, priority 2022, published 2025)
Non-standard residues stand in square brackets, D forms with d. Primed or numbered codes have the meaning given here. No end group written: not given here. pG″ = pyro form of the N-terminal glycine (pyroglycine); pG = not defined here

T1: luteinizing hormone releasing hormone (LHRH) receptor (UniProt P30968 1-328, limits assumed)
T1 sequence (looked up): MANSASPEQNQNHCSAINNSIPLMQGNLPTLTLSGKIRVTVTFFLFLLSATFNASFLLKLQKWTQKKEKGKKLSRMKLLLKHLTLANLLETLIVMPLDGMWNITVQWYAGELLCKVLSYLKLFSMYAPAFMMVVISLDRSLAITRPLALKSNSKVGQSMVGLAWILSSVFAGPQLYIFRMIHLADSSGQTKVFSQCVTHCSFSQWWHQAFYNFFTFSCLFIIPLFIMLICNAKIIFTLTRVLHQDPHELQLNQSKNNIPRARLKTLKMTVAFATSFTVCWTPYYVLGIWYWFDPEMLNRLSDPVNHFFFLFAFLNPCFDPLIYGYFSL


What was measured:
ES2 ovarian cancer cells [1] = test: cellular uptake of cy5 siRNA, microscopy and flow cytometry; format: cell-based, human; conditions: ES2, 4 hours, N:P ratios of 20:1-40:1
Procedure: Peptides, VA-LD and GF-LD, and cy5 labeled non targeting siRNA were electrostatically complexed at increasing N:P ratios and delivered to human ovarian ES2 cells for 4 hours.

ES2 ovarian cancer cells [2] = tested on: ES2 ovarian cancer cells
Procedure: VA-LD and GF-LD peptides were electrostatically complexed with and non targeting siRNA at increasing N:P ratios. Complexes were delivered to human ovarian ES2 cells for 48 hours and analyzed via MTS assay.

RNase A = test: gel assay of siRNA protection from RNase A degradation; format: in vitro ADME; conditions: 1 hour, several N:P ratios
Procedure: (§1) Gel Shift Assays. DIVA3, DIV3H, and DIV3W (all three denoted as DIV3 (X)) peptides suspended in RNase-free water (10 μM), were thawed, and kept on ice prior to complexation with 10 μM of negative control siGENOME non-targeting siRNA #5 (siNT, GE Healthcare Dharmacon, Lafayette, CO) in RNase-free water and incubated for 20 minutes at room temperature to allow the formation of DIV3 (X)-siNT complexes. Various molar ratios of peptides were complexed with siNT at increasing N:P molar ratios to determine the minimum molar ratio necessary to completely complex free siRNAs using an electrophoretic mobility shift assay. To determine the ability of each peptide variant to protect siRNAs from degradation, DIV3 (X)-siNT complexes or siNT alone was left untreated or incubated with either 50% v/v FBS or 5 μg/mL RNase A at 37° C. for one hour. Next, complexes were dissociated using 6% sodium dodecyl sulfate (SDS). Samples were added to a 2% agarose gel and run at 100 V. Gels were stained with ethidium bromide, destained with Milli-Q water, and imaged using a ChemiDoc XRS imager (Bio-Rad, Hercules, CA).
(§2) Characterization of Nanoparticle Size and Stability. To determine the minimum molar ratio necessary to completely complex free siRNAs, increasing N:P molar ratios of LHRH, DIV3W, and LHRH-DIV3W peptide were complexed with siRNAs and electrophoresed using a electrophoretic mobility shift assay. Molar ratios, shown as N:P, are representations of the molar amine peptide content in relation to 1 mole of phosphate group siRNA content. To determine the ability of the peptides to protect siRNAs from serum- or RNase-mediated degradation, LHRH and LHRH-DIV3W complexes were formed in RNase-free water with siNT at increasing N:P molar ratios and incubated at 37° C., 5% CO2, 50% v/v FBS, 5 μg/mL RNase A, or 50% v/v RNase free water for 1 hour. Peptide/siRNA complexes were dissociated using 6% sodium dodecyl sulfate (SDS) prior to electrophoresis in a 2% agarose gel run at 100 V. Gels were stained with ethidium bromide, washed with Milli-Q water, and imaged with a BioRad ChemiDoc XRS imager (BioRad, Hercules, CA).
(§3) Peptides VA-LD and GF-LD, comprising the cleavable linker VA or GLFG, respectively, between the LHRH target sequence and the DIV3W peptide, and non targeting siRNA were electrostatically complexed at increasing N:P ratios then subjected to agarose gel electrophoresis to determine optimal siRNA binding for each peptide. […] Peptide-siRNA nanocomplexes at increasing N:P ratios for peptides for VA-LD (FIG. 30A) and GF-LD (FIG. 30C) were incubated in either Rnase A enzyme or in 50% fetal bovine serum (FBS) for 1 h, dissociated using SDS then subjected to gel electrophoresis to visualize siRNA bands. Gels showing increasing N:P ratios of peptide:siRNA for VA-LD (FIG. 30B) and GF-LD (FIG. 30D) from 20:1 to 80:1 N:P; white bands are indicative of intact siRNA

[3] = gel assay of siRNA protection from degradation in 50% serum; format: in vitro ADME; conditions: 50% FBS, 1 hour, several N:P ratios
Procedure: as §1, §2, §3

OVCAR3 cells [4] = test: cellular uptake of labeled siRNA by flow cytometry; format: cell-based; conditions: for uptake efficiency: OVCAR3, siNT-DY547, 4 hours; for uptake efficiency, tandem vs LHRH peptide: FIG. 10E, 4 hr, cell line not stated
Procedure: Cellular Uptake. OVCAR3 and CAOV3 cells were prepared at 50,000 cells per well in a 24-well plate. […] Post-incubation, media was aspirated and cells were washed with 1× PBS. To counterstain the nuclei, SuperSignal NucBlue Hoechst stain (Thermo Fisher, Waltham, MA) was added to the cells for 30 minutes, followed by an additional 1×PBS wash. Subsequent imaging was performed using an EVOS FL Microscope (Thermo Fisher) at 10× magnification. For flow cytometric analysis, cells were detached, resuspended in 1× PBS, and analyzed using an Attune NXT Acoustic flow cytometer (Invitrogen, Carlsbad, CA) with the blue laser line and BL2 (574/26 nm) channel.
Cellular Uptake and Targeting Specificity. Observation of cell uptake was performed by seeding OVCAR3 and CAOV3 cells at a density of 50,000 cells per well in a 24-well plate. LHRH and LHRH-DIV3W peptides were complexed with […] as previously described and delivered to cells at 20:1 to 80:1 N:P ratios. Each cell line was incubated with tandem peptide complexes for both 4- and 24-hour treatment periods. Following incubation, cell media was removed, and cells were washed with 1× PBS prior to the addition of 500 μL of 1×PBS and SuperSignal NucBlue Hoescht 33342 nuclear stain (Thermo Fisher, Waltham, MA). Cellular imaging was completed using an EVOS FL Microscope (Thermo Fisher) at 10×, 20×, and 40× magnification. Flow cytometry was completed after cell imaging and cells were trypsinized, resuspended in 1×PBS, and analyzed with an Attune NXT Acoustic Flow Cytometer (Invitrogen) with the red laser line and RL2 […] channel.

[5] = dynamic light scattering, size and zeta potential of peptide/siRNA complexes; format: physicochemical; conditions: for zeta potential: DIV3 (X) peptide/siRNA complexes
Procedure: Dynamic Light Scattering and Transmission Electron Microscopy. DIV3 (X)-siNT complexes were prepared at 2 mg/mL in RNase-free water. Hydrodynamic size and surface charge of the peptide/siRNA complexes were determined using a Nano ZS Zetasizer (Malvern Pananalytical, Malvern, UK). All data were recorded using Malvern's Zetasizer software.
To determine nanoparticle size and zeta potential, peptides resuspended in RNase-free water (10 μM) were thawed and kept on ice prior to complexation with 10 μM of siNT in RNase-free water and incubated for 20 minutes at room temperature to form DIV3W-siNT and LHRH-DIV3W-siNT complexes. Peptide complexes were prepared at 2 mg/mL in RNase-free water. Hydrodynamic size and surface charge analysis was conducted using a Malvern Nano ZS Zetasizer (Malvern Panalytical, Malvern, UK). All data was analyzed using Malvern's Zetasizer software.

CSNK2A1 mRNA = test: qPCR of CSNK2A1 mRNA in OVCAR3 cells; format: cell-based; conditions: OVCAR3, 48 hours
Procedure: qRT-PCR. Cells were seeded at 50,000 cells per well and treated with siRNA targeting CSNK2A1 (siCSNK2A1 #s3638, Thermo Fisher Scientific) at increasing N:P ratios and incubated for a total of 48 hours in McCoys 5A/DMEM-10% FBS. Treated cells were washed with 1×PBS at 24 hours and fresh media was added. RNAisolation was completed using a Qiagen Mini-RNeasy Kit (Qiagen, Hilden, Germany) according to the manufacturer's protocol. RNA isolation quality and quantity were measured through the Gen5 protocol using a Take3 plate (BioTek). RNA was reverse-transcribed using the QuantiTect Reverse Transcription kit (Qiagen). Quantitative real-time PCR was completed with a QuantStudio 3 qPCR system (Applied Biosystems) using Applied Biosystems TaqMan FAST Master Mix (Thermo Fisher) and CSNK2A1 (ID #Hs00751002_s1) and 18S (ID #Hs99999901_s1) predesigned TaqMan probes, according to the manufacturer's protocol.
Gene and Protein Knockdown. Bioactivity of siRNAs was determined via qPCR and western blot analysis. OVCAR3 or CAOV3 cells were seeded at 50,000 cells per well as previously described and treated with siRNA targeting CSNK2A1 and siNT at N:P ratios 30:1, 40:1, 50:1, 60:1, and 70:1. LHRH-DIV3W peptide complexed with either siNT or siCSNK2A1 was incubated for a total of 48 hours in RPMI 1640/DMEM-10% FBS, with one media exchange occurring after the 24-hour timepoint. Treated cells were washed with 1×PBS at 24 hours and fresh media was added. RNA isolation was completed using a Qiagen Mini-RNeasy Kit (Qiagen, Hilden, Germany) according to the manufacturer's protocol. RNA isolation quality and quantity was measured through the Gen5 protocol using a Take3 plate (BioTek). RNA was reverse transcribed using the QuantiTect Reverse Transcription kit (Qiagen) according to the manufacturer's protocol. Quantitative real-time PCR was completed with a QuantStudio 3 qPCR system (Applied Biosystems, Waltham, MA) using Applied Biosystems TaqMan FAST Master Mix (Thermo Fisher) and CSNK2A1 (ID #Hs00751002_s1) and 18S (ID #Hs99999901_s1) predesigned TaqMan probes according to the manufacturer's protocol.

OVCAR3 cells [6] = tested on: OVCAR3 cells
Procedure: (§4) Cells were seeded at 10,000 cells per well with complete culture media in a 96-well plate and incubated overnight to allow the cells to attach. DIV3 (X) peptides were complexed with siNT at 40:1 to 80:1 N:P molar ratios. DIV3 (X)-siNT complexes were incubated with OVCAR3 or CAOV3 cells at a final concentration of 100 nM siRNA and 10% FBS for 24 hours. Media was then aspirated, cells were washed with 1× phosphate-buffered saline (PBS), and fresh media with 10% FBS was added to each well and incubated another 24 hours.
Viability was measured using an MTS Assay performed with CellTiter 96 AQueous One Solution Cell Proliferation Assay (Promega, Madison, WI). Assay reagent was added according to the manufacturer's protocol, and cells were incubated for 4 hours. Absorbance was read using a BioTek Synergy LX (BioTek, Winooksi, VT) plate reader at 490 nm. An MTS cell viability assay was also conducted as described for OVCAR3 and CAOV3 cells treated with DIV3W-siRNA complexes.
OVCAR3 or CAOV3 cells were seeded at 10,000 cells per well with complete culture media in a transparent 96-well plate and incubated overnight to allow the cells to attach. LHRH and LHRH-DIV3W peptides were delivered to cells without siRNA cargo. After 24 hours of incubation the media was exchanged and after another 24-hour incubation at 37° C. in 5% CO2, viability was measured using an MTS Assay performed with the CellTiter 96 AQueous One Solution Assay (Promega, Madison, WI). Assay reagent was added according to the manufacturer's protocol and cells were incubated for 4 hours. Absorbance was read using a BioTek Synergy LX (BioTek, Winooksi, VT) plate reader at 490 nm.

[7] = target: T1, luteinizing hormone releasing hormone …; test: cell-based or functional assay

Procedure for CAOV3 cells: as §4
Viability was measured using an MTS Assay performed with CellTiter 96 AQueous One Solution Cell Proliferation Assay (Promega, Madison, WI). Assay reagent was added according to the manufacturer's protocol, and cells were incubated for 4 hours. Absorbance was read using a BioTek Synergy LX (BioTek, Winooksi, VT) plate reader at 490 nm. […]
OVCAR3 or CAOV3 cells were seeded at 10,000 cells per well with complete culture media in a transparent 96-well plate and incubated overnight to allow the cells to attach. […] After 24 hours of incubation the media was exchanged and after another 24-hour incubation at 37° C. in 5% CO2, viability was measured using an MTS Assay performed with the CellTiter 96 AQueous One Solution Assay (Promega, Madison, WI). […] Absorbance was read using a BioTek Synergy LX (BioTek, Winooksi, VT) plate reader at 490 nm.

Row | Molecule | delivery of cy5 siRNA (ES2 ovarian cancer cells [1]) | biocompatibility of peptide/non-targeting siRNA complexes (ES2 ovarian cancer cells [2]) | intact siRNA after incubation with RNase A (RNase A) | intact siRNA after incubation in 50% serum [3] | uptake efficiency (OVCAR3 cells [4]; 80:1) [%] | zeta potential [5] [mV] | further results
1 | pGHWSY-LLRPGGGVAWEADIVADIVWDIVADIVAGGG-RRRRRRRRR ([pG]HWSY[dL]LRPGGGVAWEADIVADIVWDIVADIVAGGG[dR][dR][dR][dR][dR][dR][dR][dR][dR]; reading uncertain) [VA-LD] | deliver siRNA to ES2 ovarian cancer cells | biocompatible | protect siRNA in physiologically relevant environments | protect siRNA in physiologically relevant environments | – | – | –
2 | WEADIVADIVHDIVADIVAGGG-(d) RRRRRRRRR (WEADIVADIVHDIVADIVAGGG[dR][dR][dR][dR][dR][dR][dR][dR][dR]) [DIV3H] | – | – | – | Reduction of intact siRNA signal | 52.1 | ~30 | hydrodynamic diameter ([5]; DIV3 (X) peptide/siRNA complex at 60:1 ratio): around 100 nm; CSNK2A1 mRNA silencing (knockdown) (CSNK2A1 mRNA; 80:1, vs siNT complex): 72%
3 | pGHWSY-LLRPGGGGFLGWEADIVADIVWDIVADIVAGGG-RRRRRRRRR ([pG]HWSY[dL]LRPGGGGFLGWEADIVADIVWDIVADIVAGGG[dR][dR][dR][dR][dR][dR][dR][dR][dR]; reading uncertain) [GF-LD] | deliver siRNA to ES2 ovarian cancer cells | biocompatible | protect siRNA in physiologically relevant environments | protect siRNA in physiologically relevant environments | – | – | –
4 | WEADIVADIVADIVAGGG-(d) RRRRRRRRR (WEADIVADIVADIVAGGG[dR][dR][dR][dR][dR][dR][dR][dR][dR]) [DIVA3] | – | – | Reduction of intact siRNA signal | Reduction of intact siRNA signal | 63.6 | ~20 | CSNK2A1 mRNA silencing (knockdown) (CSNK2A1 mRNA; 60:1, vs siNT complex): 47%
5 | pGHWSY-(d) L-LRP ([pG]HWSY[dL]LRP; reading uncertain) [LHRH, reference compound] | – | – | – | – | – | – | uptake efficiency, tandem vs LHRH peptide (OVCAR3 cells [4]; 40:1): 34.3%±0.56%; uptake efficiency, tandem vs LHRH peptide (OVCAR3 cells [4]; 60:1): 34.83%±2.75%; uptake efficiency, tandem vs LHRH peptide (OVCAR3 cells [4]; 80:1): 33.87%±1.63%; cytotoxicity of peptide alone (CAOV3 cells): biocompatibility; cytotoxicity of peptide alone (OVCAR3 cells [6]): biocompatibility
6 | [pG″]HWSY[dL]LRPGGGGGWEADIVADIVWDIVADIVAGGG[dR][dR][dR][dR][dR][dR][dR][dR][dR] [LHRH-DIV3W tandem peptide] | – | – | – | – | – | – | cell viability (MTS), OVCAR3 cells, peptide without siRNA at the 20:1 ratio [7]: 110%
